Patent publication EP4375293A1 (Max-Planck-Gesellschaft zur Förderung der Wissenschaften …, dated 2024)

B1: Ma28D01 (VHH)
VHH: QVQLVESGGGLVQPGGSLRLSCVVSELGLDYYQIGWFRQAPGKEREGVSCFRSSDEIRYYADSVKGRFTTFRDNAGTTVYLQMNSLKPEDTGVYYCAVAPQTYYHGTWYGECAAAGMDSWGKGTQVTVSS
notes: Monomeric VHH
B2: Ma28F04 (VHH)
VHH: QVQLVESGGGLVQPGGSLRLSCVVSDLGLDYYQIGWFRQAPGKEREGVSCFRSSDEIRYYADPVKGRFTTFRDNAGTTVYLQMNSLKPEDTGVYYCAVAPQTYYHGTWYGECAAAGMDSWGKGTLVTVSS
notes: Monomeric VHH
B3: Ma16B06 (VHH)
VHH: QVQLVESGGGLVRTGGSLRLSCAASGSILQIWAMKWYRQAPGLQREWIATIPNSGEPFYASSVEGRFTGSRENEETVYLYLNNLEPEDTAVYYCEVNEGVPVREYWGQGTQVTVSS
notes: Monomeric VHH; also called VHH Ma16B06
B4: Ma28H11 (VHH)
VHH: QVQLVESGGGLVQPGGSLRLSCATSGLTLDHYAIGWFLQAPGKEREGVACVSDDERSLYAPSVMGRFSISRDNAKKTFYLEMNSLKPEDTGVYYCASGPVVPGTLCRIPTVLGYDDWGQGTQVTVSS
notes: Monomeric VHH; also called M28H11

Legend:
[1] = biological target: SARS-CoV-2 Omicron BA.1 variant spike protein (SARS-CoV-2 (Omicron BA.1 variant)); assay: cell-based or functional assay
[2] = biological target: T1, SARS-CoV-2 Delta RBD (Delta_RBD-Avi-His) (SARS-CoV-2 (Delta variant)); assay: BLI, biotinylated RBD, mass transport model fit
[3] = biological target: SARS-CoV-2 Omicron BA.1 RBD (Omicron_BA.1_RBD-AviHis) (SARS-CoV-2 (Omicron BA.1 variant)); assay: BLI, biotinylated RBD, mass transport model fit
[4] = biological target: SARS-CoV-2 Omicron BA.5 RBD (Omicron_BA.5_RBD-AviHis) (SARS-CoV-2 (Omicron BA.5 variant)); assay: BLI, biotinylated RBD, mass transport model fit
[5] = biological target: SARS-CoV-2 Omicron BA.2.75 RBD (Omicron_BA.2.75_RBD-AviHis) (SARS-CoV-2 (Omicron BA.2.75 variant)); assay: BLI, biotinylated RBD, mass transport model fit
[6] = biological target: SARS-CoV-2 Delta variant spike protein (SARS-CoV-2 (Delta variant)); assay: cell-based or functional assay
[7] = biological target: T1, SARS-CoV-2 Delta RBD (Delta_RBD-Avi-His); assay: BLI, biotinylated RBD

| Binder | Lowest virus neutralizing concentration (pM; IC99) [1] | Kd [2] | Kd [3] | Kd [4] | Kd [5] | Lowest virus neutralizing concentration (pM; IC99) [6] | binding result [7] |
| --- | --- | --- | --- | --- | --- | --- | --- |
| B1 | 1700 pM | 0.015 nM | 0.2 nM | 0.03 nM | 0.3 nM | – | – |
| B2 | 500 pM | 0.03 nM | 0.15 nM | 0.03 nM | 0.2 nM | 500 pM | – |
| B3 | 50 pM | – | 0.04 nM | 20 nM | 0.06 nM | > 5000 pM | no binding |
| B4 | > 5000 pM | 0.03 nM | 30 nM | 0.3 nM | 0.6 nM | 50 pM | – |
